{"source": "patent US11440969B2", "about": "“Use of human epididymis protein 4 (HE4) for assessing responsiveness of MUC 16-positive cancer treatment” (Genentech, Inc., priority 2016, dated 2022)", "tested_on": "platinum-resistant ovarian cancer", "experiment": "Clinical activity of anti-MUC16-TDC (RECIST v1.1) in ovarian cancer patients", "assay_type": "in vivo, human", "conditions": "1.0-5.6 mg/kg q3w", "description": "This Phase I, multicenter, open-label, dose escalation study was designed to identify the recommended Phase II dose (RP2D) of DMUC4064A (anti-MUC16-TDC) in platinum-resistant ovarian cancer patients and unresectable pancreatic cancer patients. The study employed a traditional 3+3 dose escalation design to determine the maximum tolerated dose (MTD), and the patients were administered intravenous (IV) DMUC4064A (Genentech Inc.) 1.0-5.6 mg/kg every three weeks (q3w) to evaluate the safety, tolerability, and pharmacokinetics of DMUC4064A.\nOvarian cancer patients had advanced epithelial ovarian, primary peritoneal, or fallopian tube cancer that progressed or relapsed within 6 months after the most recent treatment with a platinum-containing chemotherapy regimen. […] Progression or relapse from prior platinum-based chemotherapy was documented by RECIST v1.1. Patients were allowed ≤2 prior chemotherapy regimens.\nTreatment (using anti-MUC16-TDC) response rate was estimated for patients with disease that was measurable by RECIST guidelines. Patients were identified as having a partial response (PR), stable disease (SD), or progressive disease (PD) as measured by RECIST v1.1. Objective response is defined as a complete or partial response, as determined by investigator assessment and confirmed by repeat assessments ≥4 weeks after initial documentation. Duration of objective response was defined as the time from the initial complete or partial response to the time of disease progression or death.", "key": {"[1]": {"conditions": "end point of the clinical trial"}}}
{"molecule": "DMUC4064A (conjugate, chains of the INN, looked up, vedotin payload (MMAE)) VH: EVQLVESGGGLVQPGGSLRLSCAASGYSITNDYAWNWVRQAPGKGLEWVGYISYSGYTTYNPSLKSRFTISRDTSKNTLYLQMNSLRAEDTAVYYCARWTSGLDYWGQGTLVTVSS VL: DIQMTQSPSSLSASVGDRVTITCKASDLIHNWLAWYQQKPGKAPKLLIYGATSLETGVPSRFSGSGSGTDFTLTISSLQPEDFATYYCQQYWTTPFTFGQGTKVEIK", "values": [{"measurement": "additional patients with a partial response at some point during the study", "value": "six"}, {"measurement": "patients with progressive disease", "setting": "conclusion of the study", "value": "ten"}, {"measurement": "patients who maintained stable disease", "setting": "[1]", "value": 23}, {"measurement": "patients with a partial response to treatment", "setting": "[1]", "value": "two"}]}
